According to patent publication US20140120555A1:

Experiments:
[1] = target: human CXCR4 (Chemokine receptor 4) (human) (UniProt P61073); experiment: FACS on NIH3T3-CXCR4 transfected cells, 10 µg/ml antibody
[2] = target: human CXCR4 (Chemokine receptor 4) (human) (UniProt P61073); experiment: FACS on U937 promyelocytic cancer cells (endogenous CXCR4), 10 µg/ml antibody
[3] = target: human CXCR4 (Chemokine receptor 4) (human) (UniProt P61073); experiment: FACS on Hela cervix cancer cells (endogenous CXCR4), 10 µg/ml antibody
[4] = target: human CXCR4 (Chemokine receptor 4) (human) (UniProt P61073); experiment: FACS on MDA-MB-231 breast cancer cells (endogenous CXCR4), 10 µg/ml antibody

human CXCR4 (Chemokine receptor 4) (human), sequence (P61073 whole entry): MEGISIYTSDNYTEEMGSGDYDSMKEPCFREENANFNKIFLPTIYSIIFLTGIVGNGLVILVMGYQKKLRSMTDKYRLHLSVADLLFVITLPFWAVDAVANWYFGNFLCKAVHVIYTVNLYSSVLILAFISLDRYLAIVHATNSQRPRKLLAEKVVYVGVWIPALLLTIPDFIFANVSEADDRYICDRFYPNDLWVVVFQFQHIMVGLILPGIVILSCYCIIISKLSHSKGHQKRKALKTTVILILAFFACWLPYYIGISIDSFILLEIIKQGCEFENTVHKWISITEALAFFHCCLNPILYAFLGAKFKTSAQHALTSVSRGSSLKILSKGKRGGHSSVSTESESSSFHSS

MFI [1]: 2750 MFI
MFI [2]: 645 MFI
MFI [3]: 1850 MFI
MFI [4]: 239 MFI
B1: murine monoclonal antibody 515H7 (hybridoma CNCM I-4019) (antibody, V domains shown)
VH: EVNLVESGGGLVQPGGSLRLSCATSGFTFTDNYMSWVRQPPGKALEWLGFIRNKANGYTTDYSASVRGRFTISRDNSQSILYLQMNALRAEDSATYYCARDVGSNYFDYWGQGTTLTVSS
VL: DIVMSQSPSSLAVSAGEKVTMSCKSSQSLFNSRTRKNYLAWYQQKPGQSPKLLIYWASARDSGVPARFTGSGSETYFTLTISRVQAEDLAVYYCMQSFNLRTFGGGTKLEIK
modifications: Biotinylated when used as tracer in the competition assay of Example 3 (site not stated); unlabelled in Example 2.
